The results in this text go back to patent JP2014141434A (dated 2014).

B1: 抗ROBO4マウスモノクローナル抗体 MAb1 (antibody, V domains shown)
VH: EVQLVESGGGLVKPGGSLKLSCAASGFTFSTYAMSWVRQTPEKRLEWVATISNGGTYTYYPDSVKGRFTISRDNAENTLYLQMSSLRSEDTAMYFCARLIYYDYLDYWGHGTTLTVSS
VL: DAVMTQTPLSLPVSLGDQASISCRSSQSLENSNGNTYLNWYFQKPGQSPQLLIYRVSNRFSGVLDRFSGSGSGTDFTLKISRVEAEDFGVYFCLQVTHVPWTFGGGTKLEIKR
notes: Mouse IgG1 (gamma 1) / kappa from a hybridoma; The constant regions are not in the listing; also called MAb1
B2: ヒト化MAb1抗体 H−2143 (antibody, human IgG2, kappa, V domains shown)
VH: EVQLVESGGGLVQPGGSLRLSCAASGFTFSTYAMSWVRQAPGKRLEWVATISQGGTYTYYPDSVKGRFTISRDNAKNTLYLQMNSLRAEDTAVYYCARLIYYDYLDYWGQGTLVTVSS
VL: DIVMTQSPLSLPVTLGEPASISCRSSQSLENENKNLYLNWYLQKPGQSPQLLIYRVSNRFSGVPDRFSGSGSGTDFTLKISRVEAEDVGVYYCLQVTHVPWTFGPGTKVDIKR
notes: Humanised IgG2 / kappa; also called H-2143; hMAb1-H4 / hMAb1-L2
B3: ヒト化MAb1抗体 H−1143 (antibody, human IgG2, kappa, V domains shown)
VH: B2 VH with R44G
VL: B2 VL
notes: Humanised IgG2 / kappa; also called H-1143; hMAb1-H2 / hMAb1-L2
B4: ヒト化MAb1抗体 H−2140 (antibody, human IgG2, kappa, V domains shown)
VH: B2 VH
VL: B2 VL with E32S, K34G, L36T
notes: Humanised IgG2 / kappa; also called H-2140; hMAb1-H4 / hMAb1-L1

Where a chain is given by its changes, count along the chain named.

For the first assay, the target named is T1, ラットROBO4 (pCI−raROBO4導入細胞) (rat, UniProt Q80W87 38-949 at identity 0.93)).
T1 construct: also called rat ROBO4; raROBO4
T1 chain: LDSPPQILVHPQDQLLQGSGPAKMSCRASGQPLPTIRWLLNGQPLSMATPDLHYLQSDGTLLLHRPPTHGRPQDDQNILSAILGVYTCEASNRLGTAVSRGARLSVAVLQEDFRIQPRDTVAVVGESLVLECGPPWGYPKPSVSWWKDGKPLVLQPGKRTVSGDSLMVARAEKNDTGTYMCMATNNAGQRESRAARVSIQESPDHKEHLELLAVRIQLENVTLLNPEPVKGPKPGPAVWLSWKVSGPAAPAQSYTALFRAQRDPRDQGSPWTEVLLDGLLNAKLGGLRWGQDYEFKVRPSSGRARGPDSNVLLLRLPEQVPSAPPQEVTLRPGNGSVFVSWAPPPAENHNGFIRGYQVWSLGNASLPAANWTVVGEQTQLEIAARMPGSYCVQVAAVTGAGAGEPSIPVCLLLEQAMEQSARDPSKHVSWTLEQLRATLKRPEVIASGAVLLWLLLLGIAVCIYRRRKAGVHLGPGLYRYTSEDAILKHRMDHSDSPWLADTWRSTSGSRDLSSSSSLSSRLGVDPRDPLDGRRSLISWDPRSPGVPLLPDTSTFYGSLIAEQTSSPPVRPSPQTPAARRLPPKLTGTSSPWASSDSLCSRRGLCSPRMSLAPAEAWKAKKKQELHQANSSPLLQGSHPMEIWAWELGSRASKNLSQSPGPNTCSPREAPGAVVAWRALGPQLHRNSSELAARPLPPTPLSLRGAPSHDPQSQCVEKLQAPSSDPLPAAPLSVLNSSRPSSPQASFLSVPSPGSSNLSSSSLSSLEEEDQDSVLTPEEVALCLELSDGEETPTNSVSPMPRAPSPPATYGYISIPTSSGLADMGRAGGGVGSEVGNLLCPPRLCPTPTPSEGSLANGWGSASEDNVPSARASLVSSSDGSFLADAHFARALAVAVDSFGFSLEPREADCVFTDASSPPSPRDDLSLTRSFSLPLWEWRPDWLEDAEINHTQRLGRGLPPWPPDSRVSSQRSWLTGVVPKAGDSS
Nature of the assay: flow cytometry, transfected HEK293 cells. (In general: A flow cytometer gives signals particle by particle.)
As for B1, the binding result was “no binding (tested: 10 μg/mL)”.

Take B2: the binding result was “no binding (tested: 10 μg/mL (method of 4)-3-2))”.

B3: the binding result is on record as “no binding (tested: 10 μg/mL (method of 4)-3-2))”.

Consider B4, for which the binding result is listed as “no binding (tested: 10 μg/mL (method of 4)-3-2))”.

Another assay has as its target T2, N末端FLAG−tag付加型ヒトROBO1 (human, UniProt Q9Y6N7 58-1651).
T2 construct: also called hROBO1; pCI−FLAG−hROBO1
T2 sequence (Q9Y6N7 other isoform, or with tags, fused parts or gaps): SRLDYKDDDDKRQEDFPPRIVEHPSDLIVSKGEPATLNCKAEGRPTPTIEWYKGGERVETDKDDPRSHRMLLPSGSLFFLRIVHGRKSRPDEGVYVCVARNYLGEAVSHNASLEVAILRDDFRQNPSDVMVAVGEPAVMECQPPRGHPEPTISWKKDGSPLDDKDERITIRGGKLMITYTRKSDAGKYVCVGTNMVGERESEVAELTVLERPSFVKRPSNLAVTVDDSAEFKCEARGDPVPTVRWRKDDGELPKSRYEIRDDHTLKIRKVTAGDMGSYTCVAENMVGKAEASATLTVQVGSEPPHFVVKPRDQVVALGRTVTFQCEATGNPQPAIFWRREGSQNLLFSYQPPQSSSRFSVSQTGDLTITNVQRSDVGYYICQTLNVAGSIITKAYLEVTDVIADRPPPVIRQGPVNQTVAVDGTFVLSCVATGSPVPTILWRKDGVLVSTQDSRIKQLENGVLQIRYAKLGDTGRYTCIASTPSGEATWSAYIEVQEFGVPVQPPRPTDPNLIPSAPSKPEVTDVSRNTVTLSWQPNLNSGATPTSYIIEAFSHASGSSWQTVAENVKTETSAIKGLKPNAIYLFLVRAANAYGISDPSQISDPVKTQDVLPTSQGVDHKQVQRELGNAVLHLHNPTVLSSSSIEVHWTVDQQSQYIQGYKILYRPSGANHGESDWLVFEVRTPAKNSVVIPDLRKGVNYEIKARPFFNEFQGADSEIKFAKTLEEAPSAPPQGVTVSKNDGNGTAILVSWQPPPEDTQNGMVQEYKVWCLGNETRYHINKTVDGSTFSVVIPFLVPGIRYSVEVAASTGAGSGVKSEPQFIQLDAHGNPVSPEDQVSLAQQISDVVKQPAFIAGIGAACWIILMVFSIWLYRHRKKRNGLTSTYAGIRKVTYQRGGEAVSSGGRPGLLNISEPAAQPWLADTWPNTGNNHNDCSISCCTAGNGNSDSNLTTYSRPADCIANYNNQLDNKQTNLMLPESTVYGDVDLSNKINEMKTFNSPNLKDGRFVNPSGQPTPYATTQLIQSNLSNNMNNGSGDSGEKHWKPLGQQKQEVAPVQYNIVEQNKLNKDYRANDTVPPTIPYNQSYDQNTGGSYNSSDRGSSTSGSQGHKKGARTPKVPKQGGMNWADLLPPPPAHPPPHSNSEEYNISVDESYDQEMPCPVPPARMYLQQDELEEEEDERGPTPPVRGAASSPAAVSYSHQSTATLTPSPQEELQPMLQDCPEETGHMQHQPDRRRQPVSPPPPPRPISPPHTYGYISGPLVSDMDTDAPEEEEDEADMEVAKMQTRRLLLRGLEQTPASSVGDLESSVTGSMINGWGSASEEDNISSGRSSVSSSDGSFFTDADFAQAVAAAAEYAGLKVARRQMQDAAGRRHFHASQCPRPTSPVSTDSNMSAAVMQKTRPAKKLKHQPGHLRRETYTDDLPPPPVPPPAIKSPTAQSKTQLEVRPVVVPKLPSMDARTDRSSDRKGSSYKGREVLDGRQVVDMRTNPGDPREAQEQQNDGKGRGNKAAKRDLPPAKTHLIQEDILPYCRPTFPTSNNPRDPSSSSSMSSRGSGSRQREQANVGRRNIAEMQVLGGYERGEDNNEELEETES
Nature of the assay: flow cytometry, transfected HEK293 cells.
As for B1, the binding result was “no binding (tested: 10 μg/mL)”.

Take B2: the binding result was “no binding (tested: 10 μg/mL (method of 4)-4-2))”.

As to B3, the binding result was “no binding (tested: 10 μg/mL (method of 4)-4-2))”.

Consider B4, for which the binding result was “no binding (tested: 10 μg/mL (method of 4)-4-2))”.

Another assay concerns the target T3, ヒトROBO3 (human, UniProt Q96MS0 21-1386).
T3 construct: also called hROBO3; pCI−hROBO3
T3 sequence: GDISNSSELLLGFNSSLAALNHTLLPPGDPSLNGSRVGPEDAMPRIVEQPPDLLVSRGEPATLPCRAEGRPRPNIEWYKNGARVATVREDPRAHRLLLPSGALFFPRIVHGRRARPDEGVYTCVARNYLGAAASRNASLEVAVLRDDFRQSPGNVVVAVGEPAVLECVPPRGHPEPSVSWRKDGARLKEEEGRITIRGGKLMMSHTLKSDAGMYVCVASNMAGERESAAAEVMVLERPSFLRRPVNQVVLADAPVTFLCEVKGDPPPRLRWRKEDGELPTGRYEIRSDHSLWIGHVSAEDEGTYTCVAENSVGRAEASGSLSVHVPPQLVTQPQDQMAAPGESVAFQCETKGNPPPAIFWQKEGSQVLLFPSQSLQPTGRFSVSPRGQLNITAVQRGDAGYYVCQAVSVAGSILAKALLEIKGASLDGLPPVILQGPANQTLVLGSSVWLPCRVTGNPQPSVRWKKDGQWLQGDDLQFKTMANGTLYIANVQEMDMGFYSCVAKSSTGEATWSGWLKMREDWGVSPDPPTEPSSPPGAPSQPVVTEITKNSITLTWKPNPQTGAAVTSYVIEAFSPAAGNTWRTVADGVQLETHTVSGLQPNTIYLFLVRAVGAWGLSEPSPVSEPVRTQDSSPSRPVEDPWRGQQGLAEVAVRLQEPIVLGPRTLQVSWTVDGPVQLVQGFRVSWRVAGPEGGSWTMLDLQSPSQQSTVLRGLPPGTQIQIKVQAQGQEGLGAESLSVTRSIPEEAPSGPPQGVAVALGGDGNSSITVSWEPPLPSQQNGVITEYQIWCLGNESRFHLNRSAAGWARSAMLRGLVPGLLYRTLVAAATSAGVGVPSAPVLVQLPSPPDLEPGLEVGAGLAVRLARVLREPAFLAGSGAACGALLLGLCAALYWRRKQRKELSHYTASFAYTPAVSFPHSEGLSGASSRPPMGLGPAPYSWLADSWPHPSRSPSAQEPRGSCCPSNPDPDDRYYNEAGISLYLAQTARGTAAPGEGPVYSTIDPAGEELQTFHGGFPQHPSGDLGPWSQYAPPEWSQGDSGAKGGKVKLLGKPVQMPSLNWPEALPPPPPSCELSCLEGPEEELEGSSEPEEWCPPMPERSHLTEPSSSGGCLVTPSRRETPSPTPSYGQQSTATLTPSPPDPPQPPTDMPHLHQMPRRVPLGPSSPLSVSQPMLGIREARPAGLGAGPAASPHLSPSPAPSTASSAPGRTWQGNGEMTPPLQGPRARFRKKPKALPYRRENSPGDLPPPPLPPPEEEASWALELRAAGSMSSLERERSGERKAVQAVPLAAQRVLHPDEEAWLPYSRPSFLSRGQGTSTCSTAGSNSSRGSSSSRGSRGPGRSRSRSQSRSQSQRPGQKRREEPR
Kind of assay: flow cytometry, transfected HEK293 cells.
Consider B1, for which the binding result was “no binding (tested: 10 μg/mL)”.

Turning to B2, the binding result is recorded as “no binding (tested: 10 μg/mL (method of 4)-4-2))”.

With B3, the binding result was “no binding (tested: 10 μg/mL (method of 4)-4-2))”.

For B4, the binding result is given as “no binding (tested: 10 μg/mL (method of 4)-4-2))”.
